Experimental data taken from patent publication US20070258982A1 (Pfizer, published 2007).
Numbering of substitutions follows the chain as printed.

T1: IL-26 (human, UniProt Q9NPH9)
T1 construct: also called human IL-26
T1 sequence (cytokine, looked up): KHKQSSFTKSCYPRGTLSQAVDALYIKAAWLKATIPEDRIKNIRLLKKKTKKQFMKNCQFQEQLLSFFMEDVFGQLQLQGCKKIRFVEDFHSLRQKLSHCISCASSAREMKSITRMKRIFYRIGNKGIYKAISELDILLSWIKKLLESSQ

T2: murine IL-22 (murine, UniProt Q9JJY9 34-179)
T2 construct: also called mouse IL-22; mIL-22
T2 sequence: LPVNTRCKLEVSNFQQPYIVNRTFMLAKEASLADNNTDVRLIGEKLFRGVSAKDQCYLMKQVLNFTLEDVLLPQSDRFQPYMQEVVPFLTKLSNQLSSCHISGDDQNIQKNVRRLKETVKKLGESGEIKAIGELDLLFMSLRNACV

T3: human IL-22 (human, UniProt Q9GZX6 34-179)
T3 sequence: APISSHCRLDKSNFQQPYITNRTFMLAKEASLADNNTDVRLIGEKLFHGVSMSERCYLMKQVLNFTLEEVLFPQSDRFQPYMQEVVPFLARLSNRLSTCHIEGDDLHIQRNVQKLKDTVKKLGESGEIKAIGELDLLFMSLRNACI

T4: rat IL-22 (rat, UniProt G3V6X6 34-178)
T4 sequence: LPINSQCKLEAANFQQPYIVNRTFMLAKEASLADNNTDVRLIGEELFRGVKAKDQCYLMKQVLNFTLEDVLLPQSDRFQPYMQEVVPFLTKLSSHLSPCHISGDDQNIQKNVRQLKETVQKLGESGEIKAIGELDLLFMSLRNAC

B1: 166G05 IgG (germlined) (antibody, V domains shown)
VH: QVQLVQSGAEVKKPGASVKVSCKASGYTFSDYYIHWVRQAPGQGLEWMGWVNPDTGGTRYAQKFQGRVTMTRDMSISTAYMELSRLRSDDTAVYYCARDLTGFDPFDIWGQGTLVTVSS
VL: SSVLTQPPSVSVAPGKTARITCGGNNFRNKRVHWYQQKPGQAPVLVIYYDSDRPSGIPERFSGSRSGNTATLTISRVEAGDEADYYCQVWDFLTDSGSFGGGTKLTVLG
B2: 375G06 IgG (non-germlined) (antibody, V domains shown)
VH: EVQLVQSGAEVKKPGASVKVSCQASGYTFSDYYIHWVRQTPGQGFEWMGWVNPDTGGTRYAQKFQGWVTMTRDMSNTTAYMELPRLRDDDTAVYYCARDLTGYDYYDRWGQGTLVTVSS
VL: QSVLTQPPSMSVAPGKTATITCGGNNFRNKRVHWYQQRPGQAPVLVIYYDSDRPSGIPERFSGSRSGNTATLTISRVEAGDEADFYCQVWDFLADEAMFGGGTKLTVL
notes: IgG
B3: 376B10 IgG (non-germlined) (antibody, V domains shown)
VH: B2 VH with R85G, Y105Q, D107T, R108A
VL: QSVLTQPPSVSVAPGKTATITCGGNNFRNKRVHWYQQRPGQAPVLVIYYDSDRPSGIPERFSGSRSGNTATLTISRVEAGDEADFYCSTFDPFTDRPLFGGGTKLTVLG
notes: IgG
B4: 355B06 IgG (germlined) (antibody, V domains shown)
VH: QVQLVQSGAEVKKPGASVKVSCKASGYTFTDYYMHWVRQAPGQGLEWVGWINPYTGSAFYAQKFRGRVTMTRDTSISTAYMELSRLRSDDTAVYYCAREPEKFGESSGQLWGRGTLVTVSS
VL: QAVLTQPPSVSGAPGQRVTISCTGSSSNIGAGYGVHWYQQLPGTAPKLLIYGDSNRPSGVPDRFSGSKSGTSASLAITGLQAEDEADYYCQSYDSGLSGYVFGGGTQLTVLG
B5: 354A08 IgG (germlined) (antibody, V domains shown)
VH: B4 VH with S57G, K102R, E105D, S107T, L110V
VL: B4 VL with D53N, Q91Y, S92H, Y93W, S95K, G96E, L97Q
notes: isotype of this preparation not restated
B6: 355E04 IgG (germlined) (antibody, V domains shown)
VH: B4 VH with D31H, S57G, R65Q, G104D, E105S, S106P, S107N, G108A, Q109E, L110I
VL: B4 VL with D53N, G96S
B7: 356A11 IgG (germlined; Tables 6 and 9) (antibody, V domains shown)
VH: B4 VH with D31N, G104D, E105S, S106D, S107D, G108S, Q109D, L110V
VL: B4 VL with S95N, G96S
B8: 097D09 IgG (non-germlined) (antibody, V domains shown)
VH: EVQLVESGGGLVTPGGSLRLSCAASGFTFSDYYMSWVRQAPGRGLEWVSAISGSGGSTYYADSVKGRITISRDNAKNSLYLQMSSLRSEDTAVYYCARGLWVWDPLDYWGRGTLVTVSS
VL: DIQMTQSPSTLSASIGDRVTITCRASEGIYHWLAWYQQKPGKAPKLLIYKASSLASGAPSRFSGSGFGTDFTLTISSLQPDDFATYYCQQYSEFAWTFGGGTKLEIKR
notes: IgG
B9: 367D04 IgG (non-germlined) (antibody, V domains shown)
VH: EVQLVESGGGVVRPGGSLRLSCAASGFTFDDYGMNWVRQAPGKGLEWVSGVNWNGGTRDYAASVKGRFTISRDNAKNSLYLQMNSLRAEDTALYYCARGWYSGSPWSLGHWGRGTLVTVSS
VL: QAVLTQPSSVSGSPGQSVTISCTGASGDVGAYNFVSWYQQHPGKTPKLIIYDVNKRPSGVSNRFSGSKSGNTASLTISRLQAEDESDYYCSSYTSRYTTEFGGGTKVTVLG
notes: IgG
B10: 368D04 IgG (non-germlined) (antibody, V domains shown)
VH: B9 VH with S104A, P105A, S107N, L108M, H110Y
VL: B9 VL with V18I, R79G, S91A, Y93L, T94V, R96D, Y97F, T98S, T99V, E100V
B11: 062G05 IgG (non-germlined) (antibody, V domains shown)
VH: QVQLVESGAEVKKPGASVKVSCKASGYTFTSYGISWVRQAPGQGLEWMGWISAYTGNTNYAQKFQGRVTMTTDTSTSTAYMELRSLRSDDTAVYYCARDRGYYDAFDIWGQGTLVTVSS
VL: B8 VL with Y91M, S92G, F94W, A95K, W96A, T97A
notes: IgG
B12: 356A11 human monoclonal anti-IL-22 antibody (Examples 10, 11, 14, 15) (antibody, V domains shown)
VH: B4 VH with D31N, G104D, E105S, S106D, S107D, G108S, Q109D, L110V
VL: B4 VL with S95N, G96S

Each binder was assayed against T1, IL-26 (assay: ELISA: plate coated with 1 µg/ml antigen, IgG added at 1 µg/ml, HRP goat anti-human IgG, A450).
Description: (§1) Cross species reactivity of germlined and non-germlined optimized antibodies were determined as follows: ELISA plates (Costar, Cat. #3590) were coated overnight with 1 μg/ml of rat, mouse, or human IL-22 or human IL-26 in PBS buffer. Plates were washed with PBST buffer (0.05% Tween20 in PBS) 3 times, then blocked with 1% BSA (Sigma A8918)/PBST for 1 hr at RT. Antibodies were added at 1 μg/ml, incubated 1 hr at 25° C. […] The plates were incubated for 1 hour at 25° C., then washed with PBST, and developed with TMB (KPL, Cat. #50-76-04). Reaction was stopped with 0.18 M H₂SO₄ Plates were read at OD 450 nm.
B1: no binding (tested: 1 µg/ml). B2: no binding (tested: 1 µg/ml). B3: no binding (tested: 1 µg/ml). B4: no binding (tested: 1 µg/ml). B5: no binding (tested: 1 µg/ml). B6: no binding (tested: 1 µg/ml). B7: no binding (tested: 1 µg/ml). B8: no binding (tested: 1 µg/ml). B9: no binding (tested: 1 µg/ml). B10: no binding (tested: 1 µg/ml).

Each binder was assayed against T2, murine IL-22 in the same assay as above.
Description: as §1
B8: no binding (tested: 1 µg/ml).

What follows are binders tested against T5, BSA (bovine, UniProt P02769) (assay: ELISA: plate coated with antigen, IgG added at 1 µg/ml, HRP goat anti-human IgG, A450).
T5 construct: also called bovine serum albumin
T5 sequence (P02769 25-607 limits assumed): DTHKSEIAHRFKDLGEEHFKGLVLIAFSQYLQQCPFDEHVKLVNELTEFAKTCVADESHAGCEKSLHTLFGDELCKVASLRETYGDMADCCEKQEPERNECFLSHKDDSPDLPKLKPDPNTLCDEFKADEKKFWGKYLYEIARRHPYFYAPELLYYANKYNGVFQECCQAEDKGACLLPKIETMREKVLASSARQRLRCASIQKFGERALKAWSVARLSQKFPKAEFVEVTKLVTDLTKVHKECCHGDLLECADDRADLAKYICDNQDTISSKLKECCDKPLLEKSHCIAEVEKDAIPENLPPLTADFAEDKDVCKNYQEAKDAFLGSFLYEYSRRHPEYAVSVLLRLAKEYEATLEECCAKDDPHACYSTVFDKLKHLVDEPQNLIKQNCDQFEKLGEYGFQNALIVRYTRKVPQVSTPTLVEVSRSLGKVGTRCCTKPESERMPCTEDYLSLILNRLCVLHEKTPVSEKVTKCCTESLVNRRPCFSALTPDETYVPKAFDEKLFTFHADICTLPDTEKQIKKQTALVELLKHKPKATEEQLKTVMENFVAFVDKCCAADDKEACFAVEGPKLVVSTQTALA
B1: no binding (tested: 1 µg/ml). B4: no binding (tested: 1 µg/ml). B5: no binding (tested: 1 µg/ml). B6: no binding (tested: 1 µg/ml). B7: no binding (tested: 1 µg/ml).

The binders below were run against T3, human IL-22 (assay: cell-based or functional assay).
B2 was tested, and the “IC50 of IgG (pM) in BaF3-IL-22 proliferation assay” value (from here on “IC50 of IgG (pM)”) was 100 pM. With B3 the “IC50 of IgG (pM)” value was 119 pM. In the case of B4, the “IC50 of IgG (pM)” value is reported as 92 pM. With B5 the “IC50 of IgG (pM)” value was 79 pM. For B6, the “IC50 of IgG (pM)” value was 100 pM. With B7 the “IC50 of IgG (pM)” value was 53 pM. With B8 the “IC50 of IgG (pM)” value was 197 pM. In the case of B11, the “IC50 of IgG (pM)” value is reported as 112 pM. For B9, the “IC50 of IgG (pM)” value was 126 pM. For B10, the “IC50 of IgG (pM)” value was 127 pM.

What follows are binders tested against T4, rat IL-22 (assay: cell-based or functional assay).
In the case of B12, the “IC50 (pM) in BaF3 cell based assay” value is reported as 10.7 pM.

Biological target: T3, human IL-22
Test: cell-based or functional assay
Remark: another data set of the same source
With B12 the “IC50 (pM) in BaF3 cell based assay” value was 3.57 pM.

What follows are binders tested against monkey IL-22 (monkey) (assay: cell-based or functional assay).
For B12, the “IC50 (pM) in BaF3 cell based assay” value was 2.58 pM.

The binders below were run against T2, murine IL-22 (assay: cell-based or functional assay).
For B12, the “IC50 (pM) in BaF3 cell based assay” value was 2.53 pM.

Biological target: T4, rat IL-22
Test: cell-based or functional assay
Remark: another data set of the same source
For B12, the “IC50 (pM) in GROa cell based assay (HT29 cells)” value (“IC50 (pM) … (HT29 cells)” below) was 211 pM.

Biological target: T3, human IL-22
Test: cell-based or functional assay
Remark: another data set of the same source
With B12 the “IC50 (pM) … (HT29 cells)” value was 124 pM.

Biological target: monkey IL-22 (monkey)
Test: cell-based or functional assay
Remark: another data set of the same source
B12 was tested, and the “IC50 (pM) … (HT29 cells)” value was 89.6 pM.

Biological target: T2, murine IL-22
Test: cell-based or functional assay
Remark: another data set of the same source
For B12, the “IC50 (pM) … (HT29 cells)” value was 144 pM.

Biological target: T5, BSA
Test: ELISA: plate coated with antigen, IgG added at 1 µg/ml, HRP goat anti-human IgG, A450
Remark: another data set of the same source
B2: no binding (tested: 1 µg/ml). B3: no binding (tested: 1 µg/ml). B8: no binding (tested: 1 µg/ml). B11: no binding (tested: 1 µg/ml). B9: no binding (tested: 1 µg/ml). B10: no binding (tested: 1 µg/ml).
